Data on 35 sequences can be found in the Immune Epitope Database (IEDB).

The target in test [1] is HLA-A*02:01. Briefly: IEDB peptide-MHC binding, purified MHC/direct/fluorescence; filed as Kd, often an IC50 or EC50 that approximates it; ≥ and ≤ were set here for values at or beyond the usual limits of such assays.
For a further test, the target named is HLA-A*69:01. Described as above.
The target of another test is HLA-B*15:01. Described as above.
The target in the next test is HLA-B*08:01. Briefly: IEDB peptide-MHC binding, purified MHC/competitive/radioactivity; filed as Kd, often an IC50 or EC50 that approximates it; ≥ and ≤ were set here for values at or beyond the usual limits of such assays.
A further test addresses HLA-A*32:01. Described as above.
A further test deals with HLA-B*07:02. Briefly: IEDB peptide-MHC binding, purified MHC/direct/fluorescence; filed as Kd, often an IC50 or EC50 that approximates it; ≥ and ≤ were set here for values at or beyond the usual limits of such assays.
For test [2], the target named is HLA-A*02:01. Briefly: IEDB peptide-MHC binding, purified MHC/competitive/fluorescence; ≥ and ≤ were set here for values at or beyond the usual limits of such assays.
For a further test, the target named is HLA-B*40:01. Put plainly: IEDB peptide-MHC binding, purified MHC/competitive/radioactivity; filed as Kd, often an IC50 or EC50 that approximates it; ≥ and ≤ were set here for values at or beyond the usual limits of such assays.
In a further test the target is HLA-B*44:02. The test is described as above.
For the next test, the target named is HLA-B*44:03. The description is as above.
A further test deals with HLA-A*11:01. Put plainly: IEDB peptide-MHC binding, purified MHC/direct/fluorescence; filed as Kd, often an IC50 or EC50 that approximates it; ≥ and ≤ were set here for values at or beyond the usual limits of such assays.
The target of a further test is HLA-A*01:01. Put plainly: IEDB peptide-MHC binding, purified MHC/competitive/radioactivity; filed as Kd, often an IC50 or EC50 that approximates it; ≥ and ≤ were set here for values at or beyond the usual limits of such assays. As to conditions: source organism: SARS coronavirus Tor2.
Another test has as its target HLA-A*23:01. Described as above. As to conditions: source organism: SARS coronavirus Tor2.
In another test the target is HLA-A*24:02. The description is as above. As to conditions: source organism: SARS coronavirus Tor2.
The target in a further test is HLA-A*26:01. The test is described as above.
Another test concerns the target HLA-A*29:02. The description is as above. As to conditions: source organism: SARS coronavirus Tor2.
A further test has as its target HLA-A*30:02. Described as above. As to conditions: source organism: SARS coronavirus Tor2.
For another test, the target named is HLA-A*30:01. The test is described as above.
The target in the next test is HLA-A*31:01. The description is as above. As to conditions: source organism: Dengue virus 4 Philippines/H241/1956.
The target of a further test is HLA-A*33:01. The description is as above. As to conditions: source organism: Dengue virus 4 Philippines/H241/1956.
The next test concerns the target HLA-B*27:05. Briefly: IEDB peptide-MHC binding, purified MHC/direct/fluorescence; filed as Kd, often an IC50 or EC50 that approximates it; ≥ and ≤ were set here for values at or beyond the usual limits of such assays. As to conditions: source organism: Homo sapiens.
The mark [3] stands for this setting: source organism: Rickettsia conorii.
The mark [4] stands for this setting: source organism: Vaccinia virus WR.
The mark [5] stands for this setting: source organism: Dengue virus 3 Martinique/1243/1999.
[6] abbreviates: source organism: Dengue virus 1 Singapore/S275/1990.
[7] abbreviates: source organism: Haemophilus influenzae.
Setting [8] is: source organism: Dengue virus 2 Jamaica/1409/1983.
[9] abbreviates: source organism: Camelpox virus M-96.
[10] abbreviates: source organism: Dengue virus 4 Philippines/H241/1956.
Where [11] appears, read: source organism: Vaccinia virus Copenhagen.
[12] abbreviates: source organism: Dengue virus 1 Brazil/97-11/1997.
[13] abbreviates: source organism: Sudan ebolavirus.
Where [14] appears, read: source organism: Dengue virus 4 Dominica/814669/1981.

For the sequence YFSDVSAPV, the Kd with HLA-A*02:01 [1] (setting [3]) was 27.9 nM; with HLA-A*69:01 (setting [3]), 41 nM; with HLA-B*15:01 (setting [3]) it was 704 nM. For EPIKHKYPL, the Kd with HLA-B*08:01 (setting [4]) was determined as 1.27 nM. RPTIEKDVDL: the Kd with HLA-B*08:01 (setting [5]) turned out to be 846 nM. Regarding MEVTARWLWG, the Kd in the test with HLA-A*32:01 (setting [6]) was 3720 nM.

Consider AILGVLATL, for which the Kd with HLA-A*02:01 [1] (setting [7]) was determined as 316 nM; in the test with HLA-A*69:01 (setting [7]), 238 nM; with HLA-B*07:02 (setting [7]) it was 12700 nM; with HLA-B*15:01 (setting [7]), 18500 nM. For the sequence KSTDFLDPA, in the test with HLA-A*02:01 [2] (source organism: Zaire ebolavirus), the IC50 came to 5050 nM.

Take MEEALRGLPI: the Kd with HLA-B*40:01 (setting [8]) worked out at 54.2 nM; in the test with HLA-B*44:02 (setting [8]), 29.3 nM; with HLA-B*44:03 (setting [8]), 1110 nM.

Consider DLYDYITRI, for which the values for the Kd with HLA-A*02:01 [1] (setting [9]) and with HLA-A*69:01 (setting [9]) were 101 nM and 35.3 nM, respectively.

Take TPSGTWLTY: the Kd with HLA-A*11:01 (source organism: SARS-CoV1) was 4570 nM; with HLA-B*07:02 (source organism: SARS-CoV1) it was 7020 nM; in the test with HLA-A*01:01, not below 79400 nM; with HLA-A*23:01 it was not below 77800 nM; with HLA-A*24:02, not below 77600 nM; with HLA-A*26:01 (source organism: SARS coronavirus Tor2), 18600 nM. Also, the Kd in the test with HLA-A*29:02 amounted to 55.5 nM; with HLA-A*30:02 it was 11800 nM. LRVLSIPPTA: the Kd with HLA-A*30:01 (setting [10]) was found to be 3500 nM. In the test with HLA-A*02:01 [2] (setting [11]), SNAKCIEYV registered an IC50 of 53600 nM. As for TAIAGAWENG, the Kd in the test with HLA-A*32:01 (setting [5]) is not below 60500 nM. With AEIPLQWIAS, the results for the Kd with HLA-B*40:01 (setting [5]) and with HLA-B*44:02 (setting [5]) were 2240 nM and 200 nM, respectively.

On to AEALKGMPI, for which the values for the Kd with HLA-B*40:01 (setting [12]) and in the test with HLA-B*44:02 (setting [12]) were 122 nM and 1.01 nM, respectively. In the case of KGEDGCWYGM, the Kd with HLA-A*32:01 (setting [6]) is 1880 nM.

NCSSISIKL returned an IC50 in the test with HLA-A*02:01 [2] (setting [11]) not below 437000 nM. In the case of ASKVFFGPI, the Kd with HLA-B*08:01 (setting [4]) amounted to 12800 nM. For KSKNINIEV, the Kd with HLA-A*30:01 (setting [4]) was 0.324 nM. FLLRRWGGT yielded an IC50 with HLA-A*02:01 [2] (setting [13]) of 2020 nM. Take VNPGTYVYF: in the test with HLA-A*02:01 [2] (source organism: Variola virus), the IC50 was not below 186000 nM. RGVNFAEGV showed an IC50 in the test with HLA-A*02:01 [2] (setting [13]) of 32900 nM. Turning to MFGGVSWMVR, the Kd in the test with HLA-A*31:01 came to 17.2 nM; with HLA-A*32:01 (setting [10]), 952 nM; in the test with HLA-A*33:01 it was 4.59 nM. For the sequence TTKNGQPRK, the Kd with HLA-A*30:01 (setting [4]) was 0.233 nM. For LMINNMHSI, the Kd with HLA-A*32:01 (setting [4]) was found to be 13800 nM. For the sequence ETRTETWMSS, the values for the Kd with HLA-A*26:01 (setting [8]) and in the test with HLA-A*32:01 (setting [8]) were 693 nM and 12800 nM, respectively. With KAYHIIFFV, the Kd with HLA-A*30:01 (setting [4]) is 405 nM.

Consider AENTNSVTNI, for which the Kd in the test with HLA-B*40:01 (setting [14]) was 461 nM; with HLA-B*44:02 (setting [14]), 130 nM; in the test with HLA-B*44:03 (setting [14]), 372 nM.

For the sequence SLRYSSKVF, in the test with HLA-B*08:01 (setting [4]), the Kd stood at 928 nM. Turning to SNSNRLMSI, in the test with HLA-B*08:01 (setting [4]), the Kd stood at 10.1 nM. Turning to GRNSFEVRV, the Kd is not below 37700 nM in the test with HLA-A*11:01 (source organism: Homo sapiens) and 1060 nM with HLA-B*27:05. As to QLLLMRTSW, the Kd with HLA-A*32:01 (setting [5]) was 10.4 nM. Take AIIAIVFVF: the Kd with HLA-A*32:01 (setting [4]) came out at 14100 nM. For QLAYVVIGIL, in the test with HLA-B*08:01 (setting [5]), the Kd is not below 10000 nM. Take MLNYVDYNI: the Kd with HLA-A*32:01 (setting [4]) worked out at 1.59 nM.

As to LKKNKAIKIL, the Kd with HLA-B*08:01 (setting [10]) came to 11000 nM.

As a reminder, the Kd is a measure of binding affinity in units of concentration. In general, IC50 refers to the concentration that inhibits the measured activity by half. A lower IC50 goes with inhibition by little substance.
